According to patent publication US20130053549A1 (UCB, published 2013):

T1: Ox40/mFc (UniProt P43489 29-214)
T1 construct: Bought fusion protein; also called Ox40/mFc (AXXORA 1588)
T1 sequence (looked up): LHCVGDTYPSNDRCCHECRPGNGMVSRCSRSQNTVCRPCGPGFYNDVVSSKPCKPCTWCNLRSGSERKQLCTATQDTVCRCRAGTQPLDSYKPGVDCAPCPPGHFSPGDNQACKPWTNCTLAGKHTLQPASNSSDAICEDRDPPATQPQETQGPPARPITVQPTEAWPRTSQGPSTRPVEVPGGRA

B1: A26Fab-(3xG4S)-645dsFv-(3xG4S)-870dsFv (other)
heavy: EVQLVESGGGLVQPGGSLRLSCAASGFTFTNYGIHWIRQAPGKGLEWVASISPSGGLTYYRDSVKGRFTISRDDAKNSPYLQMNSLRAEDTAVYYCATGGEGIFDYWGQGTLVTVSSASTKGPSVFPLAPSSKSTSGGTAALGCLVKDYFPEPVTVSWNSGALTSGVHTFPAVLQSSGLYSLSSVVTVPSSSLGTQTYICNVNHKPSNTKVDKKVEPKSCSGGGGSGGGGSGGGGSEVQLLESGGGLVQPGGSLRLSCAVSGIDLSNYAINWVRQAPGKCLEWIGIIWASGTTFYATWAKGRFTISRDSTTVYLQMNSLRAEDTAVYYCARTVPGYSTAPYFDLWGQGTLVTVSSGGGGSGGGGSGGGGSEVQLVESGGGLVQPGGSLRLSCAASGYVFTDYGMNWVRQAPGKCLEWMGWINTYIGEPIYADSVKGRFTFSLDTSKSTAYLQMNSLRAEDTAVYYCARGYRSYAMDYWGQGTLVTVSS
light: DIQMTQSPSSLSASVGDRVTITCRATQSIYNALAWYQQKPGKAPKLLIYNANTLHTGVPSRFSASGSGTDSTLTISSLQPEDFATYYCQQYYDYPLTFGGGTKVEIKRTVAAPSVFIFPPSDEQLKSGTASVVCLLNNFYPREAKVQWKVDNALQSGNSQESVTEQDSKDSTYSLSSTLTLSKADYEKHKVYACEVTHQGLSSPVTKSFNRGECSGGGGSGGGGSGGGGSDIVMTQSPSSVSASVGDRVTITCQSSPSVWSNFLSWYQQKPGKAPKLLIYEASKLTSGVPSRFKGSGSGTDFTLTISSLQPEDFATYYCGGGYSSISDTTFGCGTKVEIKGGGGSGGGGSGGGGSDIQMTQSPSSLSASVGDRVTITCKASQNVGTNVAWYQQKPGKAPKALIYSASFLYSGVPYRFSGSGSGTDFTLTISSLQPEDFATYYCQQYNIYPLTFGCGTKVEIKR
notes: Trispecific Fab-Fv-Fv (OX40, HSA, TNF); terminal 870 Fv with a disulfide (+DS read as dsFv); HEK293 supernatant; also called A26-645-870+DS; A26Fab-645Fv-652/870Fv
B2: A26Fab 645Fv 3G4S 1189Fv (other)
heavy: EVQLVESGGGLVQPGGSLRLSCAASGFTFTNYGIHWIRQAPGKGLEWVASISPSGGLTYYRDSVKGRFTISRDDAKNSPYLQMNSLRAEDTAVYYCATGGEGIFDYWGQGTLVTVSSASTKGPSVFPLAPSSKSTSGGTAALGCLVKDYFPEPVTVSWNSGALTSGVHTFPAVLQSSGLYSLSSVVTVPSSSLGTQTYICNVNHKPSNTKVDKKVEPKSCSGGGGSGGGGSGGGGSEVQLLESGGGLVQPGGSLRLSCAVSGIDLSNYAINWVRQAPGKCLEWIGIIWASGTTFYATWAKGRFTISRDSTTVYLQMNSLRAEDTAVYYCARTVPGYSTAPYFDLWGQGTLVTVSSGGGGSGGGGSGGGGSEVQLVESGGGLVQPGGSLRLSCAASGFTFNDYDMAWVRQAPGKCLEWVASITPSGGGTYYRDSVKGRFTISRDNAKNSLYLQMNSLRAEDTAVYYCARHGYTLDYFEYWGQGTMVTVSS
light: DIQMTQSPSSLSASVGDRVTITCRATQSIYNALAWYQQKPGKAPKLLIYNANTLHTGVPSRFSASGSGTDSTLTISSLQPEDFATYYCQQYYDYPLTFGGGTKVEIKRTVAAPSVFIFPPSDEQLKSGTASVVCLLNNFYPREAKVQWKVDNALQSGNSQESVTEQDSKDSTYSLSSTLTLSKADYEKHKVYACEVTHQGLSSPVTKSFNRGECSGGGGSGGGGSGGGGSDIVMTQSPSSVSASVGDRVTITCQSSPSVWSNFLSWYQQKPGKAPKLLIYEASKLTSGVPSRFKGSGSGTDFTLTISSLQPEDFATYYCGGGYSSISDTTFGCGTKVEIKGGGGSGGGGSGGGGSDIQMTQSPSSLSASVGDRVTITCLASEGISNDLAWYQQKPGKAPKLLIYDATRLQDGVPSRFSGSGSGTDFTLTISSLQPEDFATYYCQQSYKYPWTFGCGTKLEIK
notes: Trispecific Fab-Fv-Fv (OX40, HSA, IL-6); second linker 3xG4S; HEK293 supernatant; also called A26Fab-645Fv-1189Fv; FabFvFv
B3: A26Fab 645Fv 4G4S 1189Fv (other)
heavy: EVQLVESGGGLVQPGGSLRLSCAASGFTFTNYGIHWIRQAPGKGLEWVASISPSGGLTYYRDSVKGRFTISRDDAKNSPYLQMNSLRAEDTAVYYCATGGEGIFDYWGQGTLVTVSSASTKGPSVFPLAPSSKSTSGGTAALGCLVKDYFPEPVTVSWNSGALTSGVHTFPAVLQSSGLYSLSSVVTVPSSSLGTQTYICNVNHKPSNTKVDKKVEPKSCSGGGGSGGGGSGGGGSEVQLLESGGGLVQPGGSLRLSCAVSGIDLSNYAINWVRQAPGKCLEWIGIIWASGTTFYATWAKGRFTISRDSTTVYLQMNSLRAEDTAVYYCARTVPGYSTAPYFDLWGQGTLVTVSSGGGGSGGGGSGGGGSGGGGSEVQLVESGGGLVQPGGSLRLSCAASGFTFNDYDMAWVRQAPGKCLEWVASITPSGGGTYYRDSVKGRFTISRDNAKNSLYLQMNSLRAEDTAVYYCARHGYTLDYFEYWGQGTMVTVSS
light: DIQMTQSPSSLSASVGDRVTITCRATQSIYNALAWYQQKPGKAPKLLIYNANTLHTGVPSRFSASGSGTDSTLTISSLQPEDFATYYCQQYYDYPLTFGGGTKVEIKRTVAAPSVFIFPPSDEQLKSGTASVVCLLNNFYPREAKVQWKVDNALQSGNSQESVTEQDSKDSTYSLSSTLTLSKADYEKHKVYACEVTHQGLSSPVTKSFNRGECSGGGGSGGGGSGGGGSDIVMTQSPSSVSASVGDRVTITCQSSPSVWSNFLSWYQQKPGKAPKLLIYEASKLTSGVPSRFKGSGSGTDFTLTISSLQPEDFATYYCGGGYSSISDTTFGCGTKVEIKGGGGSGGGGSGGGGSGGGGSDIQMTQSPSSLSASVGDRVTITCLASEGISNDLAWYQQKPGKAPKLLIYDATRLQDGVPSRFSGSGSGTDFTLTISSLQPEDFATYYCQQSYKYPWTFGCGTKLEIK
notes: Trispecific Fab-Fv-Fv (OX40, HSA, IL-6); second linker 4xG4S; HEK293 supernatant; also called A26Fab-645Fv-1189Fv; FabFvFv
B4: A26Fab 645Fv 5G4S 1189Fv (other)
heavy: EVQLVESGGGLVQPGGSLRLSCAASGFTFTNYGIHWIRQAPGKGLEWVASISPSGGLTYYRDSVKGRFTISRDDAKNSPYLQMNSLRAEDTAVYYCATGGEGIFDYWGQGTLVTVSSASTKGPSVFPLAPSSKSTSGGTAALGCLVKDYFPEPVTVSWNSGALTSGVHTFPAVLQSSGLYSLSSVVTVPSSSLGTQTYICNVNHKPSNTKVDKKVEPKSCSGGGGSGGGGSGGGGSEVQLLESGGGLVQPGGSLRLSCAVSGIDLSNYAINWVRQAPGKCLEWIGIIWASGTTFYATWAKGRFTISRDSTTVYLQMNSLRAEDTAVYYCARTVPGYSTAPYFDLWGQGTLVTVSSGGGGSGGGGSGGGGSGGGGSGGGGSEVQLVESGGGLVQPGGSLRLSCAASGFTFNDYDMAWVRQAPGKCLEWVASITPSGGGTYYRDSVKGRFTISRDNAKNSLYLQMNSLRAEDTAVYYCARHGYTLDYFEYWGQGTMVTVSS
light: DIQMTQSPSSLSASVGDRVTITCRATQSIYNALAWYQQKPGKAPKLLIYNANTLHTGVPSRFSASGSGTDSTLTISSLQPEDFATYYCQQYYDYPLTFGGGTKVEIKRTVAAPSVFIFPPSDEQLKSGTASVVCLLNNFYPREAKVQWKVDNALQSGNSQESVTEQDSKDSTYSLSSTLTLSKADYEKHKVYACEVTHQGLSSPVTKSFNRGECSGGGGSGGGGSGGGGSDIVMTQSPSSVSASVGDRVTITCQSSPSVWSNFLSWYQQKPGKAPKLLIYEASKLTSGVPSRFKGSGSGTDFTLTISSLQPEDFATYYCGGGYSSISDTTFGCGTKVEIKGGGGSGGGGSGGGGSGGGGSGGGGSDIQMTQSPSSLSASVGDRVTITCLASEGISNDLAWYQQKPGKAPKLLIYDATRLQDGVPSRFSGSGSGTDFTLTISSLQPEDFATYYCQQSYKYPWTFGCGTKLEIK
notes: Trispecific Fab-Fv-Fv (OX40, HSA, IL-6); second linker 5xG4S; HEK293 supernatant; also called A26Fab-645Fv-1189Fv; FabFvFv
B5: A26Fab 645Fv 2G4S 1189Fv (other)
heavy: EVQLVESGGGLVQPGGSLRLSCAASGFTFTNYGIHWIRQAPGKGLEWVASISPSGGLTYYRDSVKGRFTISRDDAKNSPYLQMNSLRAEDTAVYYCATGGEGIFDYWGQGTLVTVSSASTKGPSVFPLAPSSKSTSGGTAALGCLVKDYFPEPVTVSWNSGALTSGVHTFPAVLQSSGLYSLSSVVTVPSSSLGTQTYICNVNHKPSNTKVDKKVEPKSCSGGGGSGGGGSGGGGSEVQLLESGGGLVQPGGSLRLSCAVSGIDLSNYAINWVRQAPGKCLEWIGIIWASGTTFYATWAKGRFTISRDSTTVYLQMNSLRAEDTAVYYCARTVPGYSTAPYFDLWGQGTLVTVSSGGGGSGGGGSEVQLVESGGGLVQPGGSLRLSCAASGFTFNDYDMAWVRQAPGKCLEWVASITPSGGGTYYRDSVKGRFTISRDNAKNSLYLQMNSLRAEDTAVYYCARHGYTLDYFEYWGQGTMVTVSS
light: DIQMTQSPSSLSASVGDRVTITCRATQSIYNALAWYQQKPGKAPKLLIYNANTLHTGVPSRFSASGSGTDSTLTISSLQPEDFATYYCQQYYDYPLTFGGGTKVEIKRTVAAPSVFIFPPSDEQLKSGTASVVCLLNNFYPREAKVQWKVDNALQSGNSQESVTEQDSKDSTYSLSSTLTLSKADYEKHKVYACEVTHQGLSSPVTKSFNRGECSGGGGSGGGGSGGGGSDIVMTQSPSSVSASVGDRVTITCQSSPSVWSNFLSWYQQKPGKAPKLLIYEASKLTSGVPSRFKGSGSGTDFTLTISSLQPEDFATYYCGGGYSSISDTTFGCGTKVEIKGGGGSGGGGSDIQMTQSPSSLSASVGDRVTITCLASEGISNDLAWYQQKPGKAPKLLIYDATRLQDGVPSRFSGSGSGTDFTLTISSLQPEDFATYYCQQSYKYPWTFGCGTKLEIK
notes: Trispecific Fab-Fv-Fv (OX40, HSA, IL-6); second linker 2xG4S; HEK293 supernatant; also called A26Fab-645Fv-1189Fv; FabFvFv

Biological target: T1, Ox40/mFc
Assay: SPR, Biacore 3000; construct captured by anti-human CH1 antibody, 20 nM Ox40/mFc alone
Description: (§1) Covalent immobilisation of the capture antibody was achieved by standard amine coupling chemistry.
(§2) After each cycle, the capture surface was regenerated with 2×1 min injections of 40 mM HCl followed by 30 s of 5 mM NaOH. The flow rates used were 10 μl/min for capture, 30 μl/min for association and dissociation phases, and 10 μl/min for regeneration.

Response RU [RU] | Binder
32 | B1

Biological target: T2, human serum albumin (human, UniProt P02768 25-609)
T2 construct: Bought protein; also called HSA
Assay: SPR, Biacore 3000; construct captured by anti-human CH1 antibody, 50 nM HSA alone
Description: as §1, §2

Response RU [RU] | Binder
10 | B1

Biological target: T2, human serum albumin
Assay: SPR, Biacore T100; sample captured by anti-human CH1 antibody, HSA as analyte
Description: as §1, §2
(§3) A blank flow-cell was used for reference subtraction and buffer-blank injections were included to subtract instrument noise and drift.

Stoichiometry | Binder
0.39 | B2
0.4 | B3
0.39 | B4
0.4 | B5

Biological target: T2, human serum albumin
Assay: SPR, Biacore T100; sample captured by anti-human CH1 antibody, HSA as analyte, 1:1 fit
Description: as §1, §2
(§4) Kinetic parameters were determined by simultaneous global-fitting of the resulting sensorgrams to a standard 1:1 binding model using Biacore T100 Evaluation Software v2.0.1.

Kd [nM] | koff [s⁻¹] | kon [M⁻¹ s⁻¹] | Binder
11.6 | 0.000392 | 33800 | B2
11.7 | 0.000396 | 33900 | B3
12.2 | 0.000393 | 32400 | B4
11.6 | 0.000389 | 33700 | B5

Biological target: T3, TNF (human, UniProt P01375 77-233)
T3 construct: also called TNF (Strathmann hTNFa); hTNFa
Assay: SPR, Biacore 3000; sample captured by anti-human CH1 antibody, TNF as analyte
Description: as §1, §2
Kinetic parameters were determined by simultaneous global-fitting of the resulting sensorgrams to a standard 1:1 binding model using Biacore 3000 Evaluation Software v3.2

Affinity (fold loss against the parent) [fold] | Stoichiometry | Binder
2 | 0.42 | B1

Biological target: T4, IL-6 (UniProt P05231 30-212, limits assumed)
Assay: SPR, Biacore T100; sample captured by anti-human CH1 antibody, IL-6 as analyte
Description: as §1, §2, §3

Stoichiometry | Binder
0.68 | B2
0.66 | B3
0.69 | B4
0.47 | B5

Biological target: T4, IL-6
Assay: SPR, Biacore T100; sample captured by anti-human CH1 antibody, IL-6 as analyte, 1:1 fit
Description: as §1, §3, §4

Kd [nM] | koff [s⁻¹] | kon [M⁻¹ s⁻¹] | Binder
0.84 | 0.000737 | 874000 | B2
0.52 | 0.000729 | 1.41e+06 | B3
0.48 | 0.000768 | 1.61e+06 | B4
0.78 | 0.000747 | 959000 | B5
